A word on the Kd: it is the equilibrium constant for the complex coming apart. In general, EC50 refers to the concentration needed to bring the measured effect to its halfway point. What is called EC50 (read off the curve) is the concentration giving half of the maximal effect. Higher therefore signals weaker potency.

Results on five molecules are retold here after patent US20220073613A1 (XILIO DEVELOPMENT, published 2022).

In assay [1] the target is T1, parental anti-CTLA4 antibody (9D9), murine IgG2a.
T1 construct: Made at ATUM by HEK293 transient expression as murine IgG2a; reactive against murine CTLA4; also called 9D9.IgG2a; 9D9 IgG2a
Briefly: SPR, Biacore T200, 37 C; 9D9 coupled to CM5 chip, peptide as analyte; steady-state model.

Assay [2] deals with CTLA4 on CTLA4 expressing Jurkat cells (UniProt P16410 36-223, limits assumed). Briefly: cell-based or functional assay.
Chain of CTLA4 on CTLA4 expressing Jurkat cells (P16410 36-223 limits assumed): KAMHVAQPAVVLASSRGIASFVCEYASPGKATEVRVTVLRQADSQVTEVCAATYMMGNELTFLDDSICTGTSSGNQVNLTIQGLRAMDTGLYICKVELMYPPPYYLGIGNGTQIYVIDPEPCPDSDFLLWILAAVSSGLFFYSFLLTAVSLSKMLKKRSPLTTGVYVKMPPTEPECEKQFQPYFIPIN
For assay [3], the target named is T2, human CTLA4-Fc (R&D Systems, #7268-CT) (human, UniProt P16410 36-162).
T2 construct: Bought; not shown: Fc part
T2 sequence (P16410 36-162 limits assumed): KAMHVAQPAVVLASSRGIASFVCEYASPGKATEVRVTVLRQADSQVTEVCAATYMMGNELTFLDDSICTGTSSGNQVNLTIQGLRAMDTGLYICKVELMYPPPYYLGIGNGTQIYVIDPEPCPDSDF
Briefly: ELISA, human CTLA4-Fc coated; protease +. Background: ELISA stands for enzyme-linked immunosorbent assay.

Assay [4] deals with T2, human CTLA4-Fc (R&D Systems, #7268-CT). As to the kind of experiment: ELISA, human CTLA4-Fc coated; protease -.
For assay [5] the target is unchanged. As to the kind of experiment: ELISA, human CTLA4-Fc coated; protease -. This is another data set of the same source.
Assay [6] has the same target. As to the kind of experiment: low density antigen binding ELISA, human CTLA4-Fc coated; no protease.
Assay [7] shares this target. Briefly: CTLA4 ELISA (luminescence) after culture of the antibody in RPMI as control.
For assay [8] the target is unchanged. Briefly: low density antigen binding ELISA, human CTLA4-Fc coated; control not exposed to protease.
Assay [9] shares this target. As to the kind of experiment: CTLA4 ELISA (luminescence) after culture of the antibody in colon tumor conditioned media.
Assay [10] concerns the target T3, CTLA4 coated on an MSD plate (Homo sapiens (Human), UniProt P16410 36-161).
T3 construct: not shown: The carrier of the coated recombinant CTLA4; It is probably the Fc of a CTLA4-Fc, as in the other ELISAs
As to the kind of experiment: binding to a CTLA4-coated MSD plate; antibody from plasma of MB49-bearing B-hCTLA4 mice 4 days after 10 mg/kg, IgG quantified by ELISA, 3-fold dilutions (Example 16).

Assay [11] concerns the target T2, human CTLA4-Fc (R&D Systems, #7268-CT). Briefly: ELISA, human CTLA4-Fc coated; protease +. This is another data set of the same source.
Assay [12] has the same target. As to the kind of experiment: low density antigen binding ELISA, human CTLA4-Fc coated; after protease digestion.
For assay [13] the target is unchanged. As to the kind of experiment: CTLA4 ELISA (luminescence) after culture of Antibody 2-16 in colon tumor conditioned media; the text gives 100% of molecules cleaved.
The target in assay [14] is T4, muCTLA4hsIgG protein (Abcam) (murine, UniProt P09793 36-161, limits assumed).
T4 construct: Bought; also called murine CTLA4; not shown: human IgG part (hsIgG)
Briefly: low density antigen binding ELISA, 3 ng muCTLA4hsIgG per well.

Assay [15] concerns the target T5, murine CTLA4-Fc (R&D Systems) (murine, UniProt P09793 36-162).
T5 construct: Bought; also called muCTLA4-hsIgG (R&D Systems); not shown: human IgG Fc part (hsIgG)
As to the kind of experiment: ELISA, plate-coated murine CTLA4-Fc, anti-muKappa-HRP; ratio of EC50s.

The target of assay [16] is T4, muCTLA4hsIgG protein (Abcam). As to the kind of experiment: low density antigen binding ELISA, muCTLA4hsIgG coated; average of three experiments.

T3 sequence (P16410 36-161 limits assumed): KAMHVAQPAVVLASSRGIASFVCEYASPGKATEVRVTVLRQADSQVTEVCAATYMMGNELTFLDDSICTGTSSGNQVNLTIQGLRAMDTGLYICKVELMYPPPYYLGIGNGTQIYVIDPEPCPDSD

B1: masking peptide CNLIVEGHC (peptide)
peptide: CNLIVEGHC
notes: Selected from the Ph.D.-C7C phage library; also called sterically occluded peptide
B1: the Kd in [1] stood at 11000 nM.

B2: Antibody 2-6 (antibody, human IgG1, kappa)
light: EIVLTQSPDFQSVTPKEKVTITCSANSALSYMYWYQQKPDQSPKLWVHGTSNLASGVPSRFSGSGSGTDFTLTINSLEAEDAATYYCHHWSNTQWTFGGGTKVEIKRTVAAPSVFIFPPSDEQLKSGTASVVCLLNNFYPREAKVQWKVDNALQSGNSQESVTEQDSKDSTYSLSSTLTLSKADYEKHKVYACEVTHQGLSSPVTKSFNRGEC
heavy: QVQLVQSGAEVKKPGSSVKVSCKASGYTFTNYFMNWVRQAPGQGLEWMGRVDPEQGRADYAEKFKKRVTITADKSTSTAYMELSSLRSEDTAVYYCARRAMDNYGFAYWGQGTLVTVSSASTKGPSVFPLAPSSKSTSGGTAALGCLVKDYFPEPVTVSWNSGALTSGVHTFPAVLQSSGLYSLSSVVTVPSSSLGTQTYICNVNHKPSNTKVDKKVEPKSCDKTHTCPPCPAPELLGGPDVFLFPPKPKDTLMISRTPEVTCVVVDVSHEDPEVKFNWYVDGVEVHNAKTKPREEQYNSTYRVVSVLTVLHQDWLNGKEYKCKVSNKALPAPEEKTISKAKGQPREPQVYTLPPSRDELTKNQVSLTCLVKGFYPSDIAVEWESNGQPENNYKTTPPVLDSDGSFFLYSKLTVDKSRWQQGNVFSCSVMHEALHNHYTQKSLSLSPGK
notes: Unmasked version of Antibody 2 with S239D and I332E in the Fc region; also called unmasked parental antibody; parental unmasked Antibody 2-6
Turning to B2, the “EC50 of FcγRIIIa (ADCC) reporter activation, after exposure to protease” value in assay [2] amounted to 0.0049 ng/mL. Moreover, the “EC50 of FcγRIIIa (ADCC) reporter activation, without protease” value in [2] was 0.008 ng/mL. Further, the concentration for a half-maximal effect (EC50) in assay [3] was determined as 0.39 nM; in assay [4], 0.39 nM; in assay [5] it was 0.69 nM; in [6] it was 0.69 nM; in assay [8] it was 0.69 nM. In addition, the concentration for a half-maximal effect (EC50 (read off the curve)) in assay [7] is about 0.6 nM; in [9] it was about 0.4 nM; in [10], about 7 ng/mL.

B3: Antibody 2-7 (Activated) (antibody)
light: EIVLTQSPDFQSVTPKEKVTITCSANSALSYMYWYQQKPDQSPKLWVHGTSNLASGVPSRFSGSGSGTDFTLTINSLEAEDAATYYCHHWSNTQWTFGGGTKVEIKRTVAAPSVFIFPPSDEQLKSGTASVVCLLNNFYPREAKVQWKVDNALQSGNSQESVTEQDSKDSTYSLSSTLTLSKADYEKHKVYACEVTHQGLSSPVTKSFNRGEC
heavy: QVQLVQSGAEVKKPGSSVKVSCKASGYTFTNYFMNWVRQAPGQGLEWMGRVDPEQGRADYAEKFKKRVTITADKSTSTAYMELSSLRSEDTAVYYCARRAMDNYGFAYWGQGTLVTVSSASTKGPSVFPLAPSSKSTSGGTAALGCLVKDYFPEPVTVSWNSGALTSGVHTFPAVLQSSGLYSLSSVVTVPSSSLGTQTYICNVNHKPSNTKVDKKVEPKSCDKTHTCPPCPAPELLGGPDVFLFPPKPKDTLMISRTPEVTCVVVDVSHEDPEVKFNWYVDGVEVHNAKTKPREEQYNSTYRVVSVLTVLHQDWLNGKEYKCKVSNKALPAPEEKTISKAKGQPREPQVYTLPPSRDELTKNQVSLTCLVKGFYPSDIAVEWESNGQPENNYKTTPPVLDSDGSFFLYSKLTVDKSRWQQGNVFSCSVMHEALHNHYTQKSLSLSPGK
notes: also called Antibody 2-7 with protease; not shown: remnant of the cleaved linker (part of VPLSLY and spacer SGG)
For B3, the concentration for a half-maximal effect (EC50) in assay [11] and in [12] was 0.58 nM in each case.

B4: Antibody 2-16 (colon tumor) (antibody)
heavy chain: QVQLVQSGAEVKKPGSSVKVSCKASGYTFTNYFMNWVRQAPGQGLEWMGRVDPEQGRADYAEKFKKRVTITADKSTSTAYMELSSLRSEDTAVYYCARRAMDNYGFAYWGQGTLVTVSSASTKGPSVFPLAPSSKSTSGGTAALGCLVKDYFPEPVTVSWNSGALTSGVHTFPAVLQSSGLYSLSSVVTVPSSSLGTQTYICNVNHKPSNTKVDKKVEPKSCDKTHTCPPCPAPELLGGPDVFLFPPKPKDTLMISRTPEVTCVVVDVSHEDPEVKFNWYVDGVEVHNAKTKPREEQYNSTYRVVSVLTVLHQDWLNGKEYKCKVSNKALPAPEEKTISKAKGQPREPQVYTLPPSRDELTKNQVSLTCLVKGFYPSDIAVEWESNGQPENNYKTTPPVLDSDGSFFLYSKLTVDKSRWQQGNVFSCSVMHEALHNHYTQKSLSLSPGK
light chain with masking components, cleaved: SGGEIVLTQSPDFQSVTPKEKVTITCSANSALSYMYWYQQKPDQSPKLWVHGTSNLASGVPSRFSGSGSGTDFTLTINSLEAEDAATYYCHHWSNTQWTFGGGTKVEIKRTVAAPSVFIFPPSDEQLKSGTASVVCLLNNFYPREAKVQWKVDNALQSGNSQESVTEQDSKDSTYSLSSTLTLSKADYEKHKVYACEVTHQGLSSPVTKSFNRGEC
notes: also called Antibody 2-16 after culture in colon tumor conditioned media (colon2 4 sept colon tumor sample)
With B4, the concentration giving a half-maximal response (EC50 (read off the curve)) in assay [13] is about 0.4 nM.

B5: activatable masked anti-CTLA4 antibody (masked 9D9) (antibody, mouse IgG2a, kappa)
light: ACNLIVEGHCGGSVPLSLYSGGGDIVMTQTTLSLPVSLGDQASISCRSSQSIVHSNGNTYLEWYLQKPGQSPKLLIYKVSNRFSGVPDRFSGSGSGTDFTLKISRVEAEDLGVYYCFQGSHVPYTFGGGTKLEIKRADAAPTVSIFPPSSEQLTSGGASVVCFLNNFYPKDINVKWKIDGSERQNGVLNSWTDQDSKDSTYSMSSTLTLTKDEYERHNSYTCEATHKTSTSPIVKSFNRNEC
heavy: EAKLQESGPVLVKPGASVKMSCKASGYTFTDYYMNWVKQSHGKSLEWIGVINPYNGDTSYNQKFKGKATLTVDKSSSTAYMELNSLTSEDSAVYYCARYYGSWFAYWGQGTLITVSSAKTTAPSVYPLAPVCGDTTGSSVTLGCLVKGYFPEPVTLTWNSGSLSSGVHTFPAVLQSDLYTLSSSVTVTSSTWPSQSITCNVAHPASSTKVDKKIEPRGPTIKPCPPCKCPAPNLLGGPSVFIFPPKIKDVLMISLSPIVTCVVVDVSEDDPDVQISWFVNNVEVHTAQTQTHREDYNSTLRVVSALPIQHQDWMSGKEFKCKVNNKDLPAPIERTISKPKGSVRAPQVYVLPPPEEEMTKKQVTLTCMVTDFMPEDIYVEWTNNGKTELNYKNTEPVLDSDGSYFMYSKLRVEKKNWVERNSYSCSVVHEGLHNHHTTKSFSRTPGK
notes: Murine IgG2a; also called masked anti-CTLA4 antibody 2
With B5, the “fold lower binding than parental anti-CTLA4 antibody” value in [14] is about 156 fold. Further, the “fold lower binding than parental anti-CTLA4 antibody (9D9)” value in assay [15] amounted to 90 fold. Besides, the EC50 in [16] worked out at 48.4 nM.
